Measurements from PMC5127646.

Target: RBM5 OCRE domain (residues 451-511), wild type (human) (UniProt P52756)
Experiment: ITC; Sm tail constructs with wild type OCRE; SmN constructs (1 mM) titrated into OCRE (100 μM); ITC200, 24°C, 20 mM sodium phosphate pH 6.5, 50 mM NaCl; duplicates

Chain of RBM5 OCRE domain (residues 451-511), wild type (human) (P52756 other isoform, or with tags, fused parts or gaps): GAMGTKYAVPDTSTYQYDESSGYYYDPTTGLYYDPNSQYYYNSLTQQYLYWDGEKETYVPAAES

Substance	Kd [µM]
SmB 167-231 4P→4A (from UniProt P14678-2 167-231) (domain or fragment)	20
SmB 167-231 R1/R2→E1/E2 (from UniProt P14678-2 167-231) (domain or fragment)	159
SmN 167-240 R1/R2→E1/E2 (from UniProt P63162 167-240) (domain or fragment)	150

The remaining lines, values ahead:

Kd [µM]	Substance
66.5	SmN 167-240 R1→E1 (from UniProt P63162 167-240) (domain or fragment)
74	SmN 167-240 R2→E2 (from UniProt P63162 167-240) (domain or fragment)
